To fix the notation:
B4: full-length HIS-tagged SMYD3 recombinant protein (enzyme, human, UniProt Q9H7B4 1-428, looked up)
chain: MEPLKVEKFATAKRGNGLRAVTPLRPGELLFRSDPLAYTVCKGSRGVVCDRCLLGKEKLMRCSQCRVAKYCSAKCQKKAWPDHKRECKCLKSCKPRYPPDSVRLLGRVVFKLMDGAPSESEKLYSFYDLESNINKLTEDKKEGLRQLVMTFQHFMREEIQDASQLPPAFDLFEAFAKVICNSFTICNAEMQEVGVGLYPSISLLNHSCDPNCSIVFNGPHLLLRAVRDIEVGEELTICYLDMLMTSEERRKQLRDQYCFECDCFRCQTQDKDADMLTGDEQVWKEVQESLKKIEELKAHWKWEQVLAMCQAIISSNSERLPDINIYQLKVLDCAMDACINLGLLEEALFYGTRTMEPYRIFFPGSHPVRGVQVMKVGKLQLHQGMFPQAMKNLRLAFDIMRVTHGREHSLIEDLILLLEECDANIRAS
notes: SMYD3 (lysine methyltransferase SET and MYND Domain Containing 3), full length, from the plasmid pET28-MHL-SMYD3 (Addgene 32048); no species is printed for the Addgene plasmid; also called HIS-SMYD3; HIS-SMYD3 fusion protein; source: E. coli BL21 (DE3), purified (Dynabeads HIS-Tag Isolation and Pulldown)

Common to all, as to conditions: both partners purified
For assay [1], the target named is B4. Description: pull-down; HIS-SMYD3 incubated with recombinant c-MYC or FLAG c-MYC fragments for 1 h at 4 °C, precipitated with Dynabeads HIS-Tag Isolation and Pulldown, washed in buffer A (20 mM Tris-HCl pH 8, 150 mM KCl, 5 mM MgCl2, 0.2 mM EDTA, 10% glycerol, 0.1% NP-40, 1 mM DTT), immunoblot.
Assay [2] deals with B4. The experiment in a line: pull-down; competition assay: 500 ng HIS-SMYD3 and 200 ng untagged full-length c-MYC, 1 h at 4 °C, with escalating doses (0, 1, 5, 25, 125 µM) of P14, P14ext1 or P14ext2; precipitated on histidine beads, immunoblot with anti-c-MYC and anti-HIS. (In western blotting, separated proteins are transferred to a membrane and probed.)
For assay [3], the target named is T1, untagged human full-length c-MYC protein (human, UniProt P01106-2 1-454).
T1 construct: c-MYC, human, full length, untagged; also called c-MYC recombinant protein; untagged recombinant c-MYC protein; source: bought: Abcam ab169901, expressed in E. coli
Description: pull-down; HIS-SMYD3 incubated with recombinant c-MYC or FLAG c-MYC fragments for 1 h at 4 °C, precipitated with Dynabeads HIS-Tag Isolation and Pulldown, washed in buffer A (20 mM Tris-HCl pH 8, 150 mM KCl, 5 mM MgCl2, 0.2 mM EDTA, 10% glycerol, 0.1% NP-40, 1 mM DTT), immunoblot.

B1: FLAG c-MYC M3 (aa 1-165) (domain or fragment, human, UniProt P01106-2 1-165, looked up)
chain: MDFFRVVENQQPPATMPLNVSFTNRNYDLDYDSVQPYFYCDEEENFYQQQQQSELQPPAPSEDIWKKFELLPTPPLSPSRRSGLCSPSYVAVTPFSLRGDNDGGGGSFSTADQLEMVTELLGGDMVNQSFICDPDDETFIKNIIIQDCMWSGFSAAAKLVSEKLA
notes: c-MYC, human, residues 1-165 of the 454-residue form; amplified from p3xFLAG CMV14 c-MYC-WT, itself made from pcDNA3-c-MYC (Addgene 16011); Vector p3xFLAG-CMV14 (Sigma E7908); also called p3xFLAG CMV14 c-MYC-M3
Consider B1, for which, in assay [1], the binding result was “binds”.

B2: P14 ext1 (E42EENFYQQQ50) (peptide)
peptide: EEENFYQQQ
notes: numbers count on the 454-residue isoform; source: bought: custom purchased from Thermo Fisher Scientific
Consider B2, for which the binding result in assay [2] is given as “binds”.

B3: P14 ext2 (P36YFYCDEEENFYQQQQQSEL55) (peptide)
peptide: PYFYCDEEENFYQQQQQSEL
notes: as for B2
Consider B3, for which, in assay [2], the binding result is given as “binds”.

Turning to B4, in assay [3], the binding result was “binds”.

The record behind these values is paper PMC12209437, “Tailoring a novel colorectal cancer stem cell-targeted therapy by inhibiting the SMYD3/c-MYC axis” (Signal Transduction and Targeted Therapy, 2025).
